Laboratory results reported in article PMC3206013, “Unique Interplay between Sugar and Lipid in Determining the Antigenic Potency of Bacterial Antigens for NKT Cells” (PLoS Biology, 2011).

Target: biotinylated mouse CD1d/β2m, wild type, loaded with α-GalCer (mouse) (UniProt P11609)
Assay: SPR; α-GalCer loaded

Q: How did the Kd turn out when “Vα14Vβ8.2 iNKT TCR (mouse invariant NKT cell T cell receptor)” was run?
A: 39.9 nM
